Laboratory results as given in article PMC8958347.

Experiments:
[1] = target: Dil labelled LDL (low-density lipoprotein); assay: MST; purified LDLR^Q722* or wild-type LDLR with Dil labelled LDL; Kd model; three replicates
[2] = target: Dil labelled LDL (low-density lipoprotein); assay: MST; sEV (isolated from supernatant of infected HepG2) with Dil-LDL; Kd model; pH not stated
[3] = target: Dil labelled LDL (low-density lipoprotein)
[4] = target: Dil labelled LDL (low-density lipoprotein); assay: MST; sEV^Ad-LDLR-Q722* with Dil-LDL; Kd model; pH 5.5
[5] = target: Dil labelled LDL (low-density lipoprotein); assay: MST; sEV^Ad-LDLR-Q722* with Dil-LDL; Kd model; pH 7.4

LDLR^Q722* (truncated soluble LDLR, 1-722 amino acids), purified (from UniProt P01130 22-722) (domain or fragment)
Kd [1]: 7.89 µM

LDLR^Q722* attached to the surface of small extracellular vesicles (sEV^Ad-LDLR-Q722*) (from UniProt P01130 22-722) (domain or fragment)
Kd [2]: 0.012 µM
uptake of Dil-LDL by Ldlr–/– primary hepatocytes (confocal fluorescence intensity), sEV^Ad-LDLR-Q722* group against the sEV^Ad-LDLR-WT group [3]: 3.13 fold
uptake of Dil-LDL by Ldlr–/– primary hepatocytes (confocal fluorescence intensity), sEV^Ad-LDLR-Q722* group against the sEV^Ad-control group [3]: 2.68 fold
Kd [4]: 0.013 µM
Kd [5]: 4.98 µM

wild-type LDLR (N-terminal residues 1-788) (from UniProt P01130 22-788) (domain or fragment)
Kd [1]: 7.16 µM
